From the supplement of paper PMC9112550, “Optimization of the antimicrobial peptide Bac7 by deep mutational scanning” (BMC Biology, 2022)

Tested on: Escherichia coli TOP10
Assay: shrunken log2 fold change of peptide-encoding DNA abundance (4.5 h post-induction vs induction); higher = less antimicrobial activity (less host growth inhibition)
Settings: time post-induction: 4.5 h; library: site-saturation at positions 5, 18, 19, 20
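Also: peptides expressed intracellularly from a pBAD plasmid library in pooled LB shake-flask culture, induced with 0.3% L-arabinose, DNA abundance read by NGS, three biological replicates, DESeq2 with apeglm shrinkage.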

Sequence	shrunken log2 fold change
RRIRNRPPRLPRPRPRPRFLPRP	0.0562
RRIRTRPPRLPRPRPRPSDAPRP	-0.174
RRIRQRPPRLPRPRPRPDLRPRP	-0.0102
RRIRKRPPRLPRPRPRPQCQPRP	0.114
RRIRHRPPRLPRPRPRPMKTPRP	-0.0218
RRIRGRPPRLPRPRPRPVLIPRP	0.223
RRIRRRPPRLPRPRPRPTVKPRP	0.106
RRIRHRPPRLPRPRPRPFGWPRP	0.0661
RRIRIRPPRLPRPRPRPGSTPRP	-0.549
RRIRRRPPRLPRPRPRPAWSPRP	0.321
RRIRWRPPRLPRPRPRPGHDPRP	0.043
RRIRARPPRLPRPRPRPLGVPRP	1.44
RRIRQRPPRLPRPRPRPMGYPRP	-0.655
RRIRDRPPRLPRPRPRPVSNPRP	0.00716
RRIRDRPPRLPRPRPRPHPCPRP	0.0731
RRIRERPPRLPRPRPRPKHYPRP	-0.373
RRIRSRPPRLPRPRPRPQDTPRP	-0.265
RRIRHRPPRLPRPRPRPAWPPRP	0.613
RRIRHRPPRLPRPRPRPFRVPRP	-0.371
RRIRFRPPRLPRPRPRPMIFPRP	-0.364
RRIRKRPPRLPRPRPRPKRTPRP	1.7
RRIRQRPPRLPRPRPRPHRMPRP	-0.373
RRIRNRPPRLPRPRPRPGYIPRP	-1.11

Sequence	shrunken log2 fold change
RRIRQRPPRLPRPRPRPKETPRP	0.00762
RRIRWRPPRLPRPRPRPAAIPRP	0.302
RRIRVRPPRLPRPRPRPKNNPRP	-0.406
RRIRFRPPRLPRPRPRPWFKPRP	-0.537
RRIRCRPPRLPRPRPRPKRRPRP	0.0984
RRIRMRPPRLPRPRPRPTFGPRP	0.374
RRIRERPPRLPRPRPRPSIIPRP	-0.188
RRIRIRPPRLPRPRPRPDRIPRP	0.0297
RRIRDRPPRLPRPRPRPWIVPRP	0.0145
RRIRLRPPRLPRPRPRPFIQPRP	-0.418
RRIRNRPPRLPRPRPRPAEGPRP	0.0922
RRIRWRPPRLPRPRPRPDQQPRP	0.0822
RRIRGRPPRLPRPRPRPLMSPRP	0.271
RRIRNRPPRLPRPRPRPTGIPRP	0.0288
RRIRWRPPRLPRPRPRPKMMPRP	-0.106
RRIRVRPPRLPRPRPRPWVRPRP	0.0573
RRIRLRPPRLPRPRPRPECTPRP	0.114
RRIRYRPPRLPRPRPRPEQYPRP	-0.0207
RRIRHRPPRLPRPRPRPKASPRP	-0.0128
RRIRRRPPRLPRPRPRPSPIPRP	0.11
RRIRLRPPRLPRPRPRPLYFPRP	-0.646
RRIRWRPPRLPRPRPRPVIHPRP	0.162
RRIRGRPPRLPRPRPRPLVLPRP	0.401

Sequence	shrunken log2 fold change
RRIRLRPPRLPRPRPRPTDDPRP	-0.0495
RRIRHRPPRLPRPRPRPQLPPRP	0.181
RRIRNRPPRLPRPRPRPPRTPRP	0.59
RRIRRRPPRLPRPRPRPGRMPRP	0.41
RRIRYRPPRLPRPRPRPWGYPRP	-0.0919
RRIRMRPPRLPRPRPRPQFNPRP	-0.661
RRIRARPPRLPRPRPRPGVEPRP	0.118
RRIRTRPPRLPRPRPRPYFNPRP	-1.03
RRIRYRPPRLPRPRPRPFCVPRP	-0.264
RRIRLRPPRLPRPRPRPHSWPRP	0.0861
RRIRIRPPRLPRPRPRPVYEPRP	-0.12
RRIRGRPPRLPRPRPRPHELPRP	0.871
RRIRWRPPRLPRPRPRPQKWPRP	0.00891
RRIRARPPRLPRPRPRPGYDPRP	-0.0224
RRIRFRPPRLPRPRPRPEALPRP	0.0209
RRIRERPPRLPRPRPRPGNAPRP	-0.0685
RRIRPRPPRLPRPRPRPWGEPRP	0.113
RRIRSRPPRLPRPRPRPSVFPRP	-0.23
RRIRSRPPRLPRPRPRPFIHPRP	-0.154
RRIRTRPPRLPRPRPRPVCTPRP	0.162
RRIRWRPPRLPRPRPRPCAIPRP	0.027
RRIRERPPRLPRPRPRPGIDPRP	-0.14
RRIRWRPPRLPRPRPRPGTDPRP	0.216

Sequence	shrunken log2 fold change
RRIRERPPRLPRPRPRPMFCPRP	-0.168
RRIRERPPRLPRPRPRPEQGPRP	0.0117
RRIRVRPPRLPRPRPRPMDWPRP	-0.138
RRIRDRPPRLPRPRPRPTKTPRP	-0.014
RRIRFRPPRLPRPRPRPAYPPRP	-0.412
RRIRERPPRLPRPRPRPDHNPRP	-0.897
RRIRTRPPRLPRPRPRPVHTPRP	0.243
RRIRVRPPRLPRPRPRPKFIPRP	-0.286
RRIRGRPPRLPRPRPRPHHKPRP	-0.122
RRIRARPPRLPRPRPRPTHSPRP	0.459
RRIRYRPPRLPRPRPRPPNRPRP	-0.0643
RRIRTRPPRLPRPRPRPSLEPRP	-0.0452
RRIRGRPPRLPRPRPRPDVIPRP	0.68
RRIRARPPRLPRPRPRPLATPRP	0.647
RRIRHRPPRLPRPRPRPGYEPRP	-0.454
RRIRQRPPRLPRPRPRPPQMPRP	-0.089
RRIRHRPPRLPRPRPRPMTNPRP	-0.19
RRIRARPPRLPRPRPRPELMPRP	1.19
RRIRMRPPRLPRPRPRPMIQPRP	0.00725
RRIRARPPRLPRPRPRPIDKPRP	0.236
RRIRKRPPRLPRPRPRPFEKPRP	-0.045
RRIRLRPPRLPRPRPRPPLNPRP	0.0486
